From PMC2908990

Molecular target: CH1 domain of the murine IgG1 heavy chain, oxidized (internal disulfide bridge formed) (murine) [IgG part: P01868]
Assay: other fluorescence titration

Kd: 6.2 µM
Substance: CL domain of the murine MAK33 κ light chain (from UniProt P01837 1-107) (domain or fragment)
